{"source": "patent US20090215098A1", "about": "“QUANTIFICATION OF ENZYME ACTIVITY BY MASS SPECTROMETRY” (UCL BUSINESS PLC., priority 2006, published 2009)", "key": {"[1]": {"system": "T1, S6 Kinase/Rsk peptide substrate (SEQ ID NO: 5)", "T1 sequence": "RRRLSSLRA"}, "[2]": {"system": "Protein Kinase C peptide substrate (SEQ ID NO: 23)"}, "[3]": {"system": "T2, PKC peptide substrate (SEQ ID NO: 12)", "T2 sequence": "QKRPSQRSKYL"}, "[4]": {"system": "T3, Akt peptide substrate (SEQ ID NO: 7)", "T3 sequence": "RPRAATF"}, "Akt [5]": {"system": "Akt", "assay": "Akt activity in B cell lysates in the presence of PI3K activators with or without inhibitor", "format": "cell-based, mouse", "conditions": "PI3K activators (sodium pervanadate and anti-IgM) present; with vs without inhibitor; FIG. 3C", "description": "(§1) The activity of recombinant Akt/PKB was measured using the methods of the invention. Recombinant Akt/PKB was purchased from Upstate (Hampshire, UK). A 5.0 μL aliquot of […] (SEQ ID. NO: 7), 7.5 mM magnesium chloride, 0.15 mM EDTA, 7.5 mM β-glycerol phosphate, 0.1 mM sodium orthovanadate, and 0.1 mM DTT was mixed with 2.5 μL solution of Akt/PKB of various amounts: 0.004, 0.04, 0.2, 0.8, 4, 20, and 80 ng. The incubation time of each reaction was from between 2 minutes to 18 hours. Reactions were stopped with the addition of 7.5 μL of a 1% trifluoroacetic acid solution containing 1 pmol/μL internal standard (mass labeled SEQ ID NO: 39). Aliquots (0.5 μL out of a total of […]) from each reaction were analyzed by either MALDI-TOF MS (Ultraflex, Bruker) or LC-MS/MS (Ultimate HPLC, Dionex, connected to a Micromass/Waters Q-TOF instrument) using a nanoESI interface. Reaction products were analyzed by LC-MS/MS without further treatment. […]\n(§2) Mouse WEHI-231 B lymphoma cell line was cultured as described in Cutillas et al., Mol Cell Proteomics 4:1038-51 (2005), incorporated herein in its entirety by reference. […] After centrifugation at 20,000×g, cell lysates were ready to use as enzyme sources. The enzyme activity of Akt in varying amounts of cell lysate (0.033, 0.067, 0.33, and 0.67 μg) was measured in the protocol outlined in example 2. […]"}, "Akt [6]": {"system": "Akt", "assay": "MS quantification of activity of Akt immunoprecipitates from B lymphoma cells", "format": "cell-based, mouse", "conditions": "addition of PI3K inhibitor, FIG. 3B", "description": "as §1, §2"}, "Akt [7]": {"system": "Akt", "assay": "MS quantification of Akt activity in B lymphoma cell lysates treated with PI3K inhibitors", "format": "cell-based, mouse", "conditions": "B lymphoma cell line WEHI-231; varying concentrations of inhibitor; FIG. 3A", "description": "as §1, §2"}, "[8]": {"system": "T4, MAP Kinase peptide substrate (SEQ ID NO: 10)", "T4 sequence": "APRTPGGRR"}}, "data": [{"compound": "recombinant S6 p70 kinase", "values": [{"measurement": "extracted mass chromatogram of enzymatic product (LC-MS), time points 0, 10, 30, 60 min", "setting": "[1]", "result": "b) corresponds to phosphylation of SEQ ID NO: 5 by S6 p70 kinase"}]}, {"compound": "recombinant PKC", "values": [{"measurement": "extracted mass chromatogram of enzymatic product (LC-MS), time points 0, 10, 30, 60 min", "setting": "[2]", "result": "d) corresponds to phosphorylation of SEQ ID NO: 23 by PKC"}, {"measurement": "extracted mass chromatogram of enzymatic product (LC-MS), time points 0, 10, 30, 60 min", "setting": "[3]", "result": "a) corresponds to phosphorylation of SEQ ID NO: 12 by PKC"}]}, {"compound": "recombinant Akt/PKB", "values": [{"measurement": "enzymatic activity (phosphorylated peptide product quantified by MALDI-TOF MS or LC-MS/MS)", "setting": "[4]", "result": "capable of detecting enzymatic activity down to the zeptommole range"}]}, {"compound": "COC[C@H]1OC(=O)c2coc3c2[C@@]1(C)C1=C(C3=O)[C@@H]2CCC(=O)[C@@]2(C)C[C@H]1OC(C)=O", "note": "[WM]", "values": [{"measurement": "Activity of Akt in B cell lysates", "setting": "Akt [5]", "result": "sensitive to the presence or absence of the inhibitor"}, {"measurement": "Activity of Akt immunoprecipitates", "setting": "Akt [6]", "result": "similarly affected"}, {"measurement": "Activity of the Akt enzyme in cell lysates", "setting": "Akt [7]", "result": "decreased enzyme activity"}]}, {"compound": "recombinant Erk", "values": [{"measurement": "extracted mass chromatogram of enzymatic product (LC-MS), time points 0, 10, 30, 60 min", "setting": "[8]", "result": "c) corresponds to phosphorylation of SEQ ID NO: 10 by Erk"}]}, {"compound": "Cc1ccccc1-n1c(Cn2cnc3c(N)ncnc32)nc2cccc(C)c2c1=O", "note": "[IC87114]", "values": [{"measurement": "Activity of the Akt enzyme in cell lysates", "setting": "Akt [7]", "result": "decreased enzyme activity"}]}]}
